From the supplement of paper PMC10567573

B1: IKZF1 (parent)
chain: HIKLHSGEKPFKCHLCNYACRRRD

Variants of: B1
Assay: protein stability index of a GFP-peptide fusion (GPS, HEK-293T) (PSI 1-6); higher = more stable
Details: c terminus: a fixed tail appended
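Further: lentivirally expressed fusions sorted by FACS into six bins by GFP to DsRed ratio, PSI derived from sequencing read proportions per bin multiplied by bin number.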

Row | Variant | protein stability index
1 | HIKIHSGEKPFKCHLCNYACRRRD | 1.72
2 | HIKGHSGEKPFKCHLCNYACRRRD | 2.21
3 | HIKFHSGEKPFKCHLCNYACRRRD | 1.92
4 | HIKRHSGEKPFKCHLCNYACRRRD | 2.48
5 | HIKTHSGEKPFKCHLCNYACRRRD | 1.63
6 | HIKEHSGEKPFKCHLCNYACRRRD | 3.72
7 | HIKAHSGEKPFKCHLCNYACRRRD | 1.99
8 | HIKNHSGEKPFKCHLCNYACRRRD | 1.87
9 | HIKKHSGEKPFKCHLCNYACRRRD | 4.07
10 | HIKYHSGEKPFKCHLCNYACRRRD | 2.52
11 | HIKPHSGEKPFKCHLCNYACRRRD | 2.19
12 | HIKMHSGEKPFKCHLCNYACRRRD | 1.58
13 | HIKDHSGEKPFKCHLCNYACRRRD | 2.4
14 | HIKCHSGEKPFKCHLCNYACRRRD | 2.33
15 | HIKHHSGEKPFKCHLCNYACRRRD | 4.08
16 | HIKQHSGEKPFKCHLCNYACRRRD | 4.68
17 | HIKSHSGEKPFKCHLCNYACRRRD | 2.84
18 | HIKVHSGEKPFKCHLCNYACRRRD | 1.31
19 | YIKLHSGEKPFKCHLCNYACRRRD | 1.95
20 | DIKLHSGEKPFKCHLCNYACRRRD | 1.59
21 | MIKLHSGEKPFKCHLCNYACRRRD | 1.81
22 | PIKLHSGEKPFKCHLCNYACRRRD | 2.3
23 | TIKLHSGEKPFKCHLCNYACRRRD | 1.17
24 | GIKLHSGEKPFKCHLCNYACRRRD | 2

Row | Variant | protein stability index
25 | IIKLHSGEKPFKCHLCNYACRRRD | 1.5
26 | AIKLHSGEKPFKCHLCNYACRRRD | 1.05
27 | FIKLHSGEKPFKCHLCNYACRRRD | 2.4
28 | KIKLHSGEKPFKCHLCNYACRRRD | 2.09
29 | WIKLHSGEKPFKCHLCNYACRRRD | 1.93
30 | NIKLHSGEKPFKCHLCNYACRRRD | 2.73
31 | CIKLHSGEKPFKCHLCNYACRRRD | 1.83
32 | VIKLHSGEKPFKCHLCNYACRRRD | 1.72
33 | RIKLHSGEKPFKCHLCNYACRRRD | 2.13
34 | LIKLHSGEKPFKCHLCNYACRRRD | 2.04
35 | QIKLHSGEKPFKCHLCNYACRRRD | 1.26
36 | EIKLHSGEKPFKCHLCNYACRRRD | 2.21
37 | HIKLHSGEKPAKCHLCNYACRRRD | 2.75
38 | HIKLHSLEKPFKCHLCNYACRRRD | 1.73
39 | HIKLHSWEKPFKCHLCNYACRRRD | 2
40 | HIKLHSEEKPFKCHLCNYACRRRD | 2.62
41 | HIKLHSKEKPFKCHLCNYACRRRD | 2.47
42 | HIKLHSYEKPFKCHLCNYACRRRD | 2.25
43 | HIKLHSDEKPFKCHLCNYACRRRD | 2.25
44 | HIKLHSMEKPFKCHLCNYACRRRD | 1.78
45 | HIKLHSPEKPFKCHLCNYACRRRD | 2.19
46 | HIKLHSNEKPFKCHLCNYACRRRD | 1.18
47 | HIKLHSIEKPFKCHLCNYACRRRD | 1.68
48 | HIKLHSSEKPFKCHLCNYACRRRD | 1.63

Row | Variant | protein stability index
49 | HIKLHSCEKPFKCHLCNYACRRRD | 2.58
50 | HIKLHSVEKPFKCHLCNYACRRRD | 3.09
51 | HIKLHSAEKPFKCHLCNYACRRRD | 2.2
52 | HIKLHSHEKPFKCHLCNYACRRRD | 1.97
53 | HIKLHSFEKPFKCHLCNYACRRRD | 2.21
54 | HIKLHSREKPFKCHLCNYACRRRD | 2.08
55 | HIKLHSTEKPFKCHLCNYACRRRD | 1.15
56 | HIKLHSQEKPFKCHLCNYACRRRD | 2.16
57 | HIKLHNGEKPFKCHLCNYACRRRD | 3.35
58 | HIKLHMGEKPFKCHLCNYACRRRD | 2.13
59 | HIKLHAGEKPFKCHLCNYACRRRD | 1.65
60 | HIKLHWGEKPFKCHLCNYACRRRD | 2.93
61 | HIKLHKGEKPFKCHLCNYACRRRD | 1.82
62 | HIKLHTGEKPFKCHLCNYACRRRD | 1.99
63 | HIKLHEGEKPFKCHLCNYACRRRD | 3.3
64 | HIKLHCGEKPFKCHLCNYACRRRD | 1.51
65 | HIKLHYGEKPFKCHLCNYACRRRD | 1.79
66 | HIKLHVGEKPFKCHLCNYACRRRD | 1.16
67 | HIKLHQGEKPFKCHLCNYACRRRD | 1.88
68 | HIKLHLGEKPFKCHLCNYACRRRD | 1.93
69 | HIKLHPGEKPFKCHLCNYACRRRD | 2.02
70 | HIKLHRGEKPFKCHLCNYACRRRD | 2.24
71 | HIKLHDGEKPFKCHLCNYACRRRD | 1.97
72 | HIKLHFGEKPFKCHLCNYACRRRD | 2.19

Row | Variant | protein stability index
73 | HIKLHIGEKPFKCHLCNYACRRRD | 2.38
74 | HIKLHHGEKPFKCHLCNYACRRRD | 1.96
75 | HIKLHGGEKPFKCHLCNYACRRRD | 2.02
76 | HIKLHSGELPFKCHLCNYACRRRD | 1.86
77 | HIKLHSGERPFKCHLCNYACRRRD | 1.81
78 | HIKLHSGEPPFKCHLCNYACRRRD | 1.9
79 | HIKLHSGEAPFKCHLCNYACRRRD | 2.11
80 | HIKLHSGENPFKCHLCNYACRRRD | 1.79
81 | HIKLHSGEHPFKCHLCNYACRRRD | 3.3
82 | HIKLHSGEIPFKCHLCNYACRRRD | 2.23
83 | HIKLHSGESPFKCHLCNYACRRRD | 2.17
84 | HIKLHSGEMPFKCHLCNYACRRRD | 2.1
85 | HIKLHSGEQPFKCHLCNYACRRRD | 1.88
86 | HIKLHSGEVPFKCHLCNYACRRRD | 1.43
87 | HIKLHSGECPFKCHLCNYACRRRD | 2.79
88 | HIKLHSGEWPFKCHLCNYACRRRD | 1.26
89 | HIKLHSGEDPFKCHLCNYACRRRD | 2.8
90 | HIKLHSGEYPFKCHLCNYACRRRD | 1.58
91 | HIKLHSGEEPFKCHLCNYACRRRD | 2.02
92 | HIKLHSGEGPFKCHLCNYACRRRD | 2.12
93 | HIKLHSGEFPFKCHLCNYACRRRD | 1.97
94 | HIKLHSGETPFKCHLCNYACRRRD | 1.42
95 | HIKLHSGEKAFKCHLCNYACRRRD | 1.55
96 | HIKLHSGEKEFKCHLCNYACRRRD | 1.07

Row | Variant | protein stability index
97 | HIKLHSGEKYFKCHLCNYACRRRD | 2.88
98 | HIKLHSGEKSFKCHLCNYACRRRD | 1.75
99 | HIKLHSGEKDFKCHLCNYACRRRD | 2.14
100 | HIKLHSGEKKFKCHLCNYACRRRD | 2.73
101 | HIKLHSGEKQFKCHLCNYACRRRD | 1.43
102 | HIKLHSGEKLFKCHLCNYACRRRD | 1.76
103 | HIKLHSGEKRFKCHLCNYACRRRD | 1.74
104 | HIKLHSGEKNFKCHLCNYACRRRD | 2.16
105 | HIKLHSGEKMFKCHLCNYACRRRD | 1.58
106 | HIKLHSGEKIFKCHLCNYACRRRD | 2.19
107 | HIKLHSGEKVFKCHLCNYACRRRD | 2.26
108 | HIKLHSGEKHFKCHLCNYACRRRD | 1.67
109 | HIKLHSGEKFFKCHLCNYACRRRD | 1.91
110 | HIKLHSGEKTFKCHLCNYACRRRD | 1.84
111 | HIKLHSGEKGFKCHLCNYACRRRD | 1.93
112 | HIKLHSGEKCFKCHLCNYACRRRD | 1.76
113 | HIKLHSGEKWFKCHLCNYACRRRD | 2.31
114 | HIKLESGEKPFKCHLCNYACRRRD | 2.37
115 | HIKLCSGEKPFKCHLCNYACRRRD | 2.77
116 | HIKLQSGEKPFKCHLCNYACRRRD | 1.78
117 | HIKLYSGEKPFKCHLCNYACRRRD | 2.45
118 | HIKLMSGEKPFKCHLCNYACRRRD | 2.06
119 | HIKLVSGEKPFKCHLCNYACRRRD | 1.78
120 | HIKLWSGEKPFKCHLCNYACRRRD | 1.8

Row | Variant | protein stability index
121 | HIKLDSGEKPFKCHLCNYACRRRD | 2.12
122 | HIKLASGEKPFKCHLCNYACRRRD | 3.14
123 | HIKLSSGEKPFKCHLCNYACRRRD | 1.18
124 | HIKLKSGEKPFKCHLCNYACRRRD | 2.27
125 | HIKLISGEKPFKCHLCNYACRRRD | 2.57
126 | HIKLTSGEKPFKCHLCNYACRRRD | 1.48
127 | HIKLLSGEKPFKCHLCNYACRRRD | 1.7
128 | HIKLPSGEKPFKCHLCNYACRRRD | 1.94
129 | HIKLNSGEKPFKCHLCNYACRRRD | 2.13
130 | HIKLGSGEKPFKCHLCNYACRRRD | 2.45
131 | HIKLFSGEKPFKCHLCNYACRRRD | 1.97
132 | HIKLRSGEKPFKCHLCNYACRRRD | 1.55
133 | HIYLHSGEKPFKCHLCNYACRRRD | 1.69
134 | HINLHSGEKPFKCHLCNYACRRRD | 2.11
135 | HIWLHSGEKPFKCHLCNYACRRRD | 2.73
136 | HICLHSGEKPFKCHLCNYACRRRD | 2.56
137 | HIPLHSGEKPFKCHLCNYACRRRD | 3.67
138 | HIMLHSGEKPFKCHLCNYACRRRD | 1.51
139 | HISLHSGEKPFKCHLCNYACRRRD | 1.91
140 | HIQLHSGEKPFKCHLCNYACRRRD | 2.03
141 | HIILHSGEKPFKCHLCNYACRRRD | 1.61
142 | HIDLHSGEKPFKCHLCNYACRRRD | 1.95
143 | HIELHSGEKPFKCHLCNYACRRRD | 1.8
144 | HILLHSGEKPFKCHLCNYACRRRD | 1.99

Row | Variant | protein stability index
145 | HIRLHSGEKPFKCHLCNYACRRRD | 1.88
146 | HIHLHSGEKPFKCHLCNYACRRRD | 2.44
147 | HITLHSGEKPFKCHLCNYACRRRD | 1.9
148 | HIALHSGEKPFKCHLCNYACRRRD | 1.58
149 | HIVLHSGEKPFKCHLCNYACRRRD | 1.83
150 | HIGLHSGEKPFKCHLCNYACRRRD | 2.38
151 | HIFLHSGEKPFKCHLCNYACRRRD | 2.38
152 | HIKLHSGQKPFKCHLCNYACRRRD | 1.56
153 | HIKLHSGWKPFKCHLCNYACRRRD | 2.28
154 | HIKLHSGMKPFKCHLCNYACRRRD | 1.63
155 | HIKLHSGRKPFKCHLCNYACRRRD | 1.33
156 | HIKLHSGDKPFKCHLCNYACRRRD | 1.72
157 | HIKLHSGNKPFKCHLCNYACRRRD | 1.25
158 | HIKLHSGFKPFKCHLCNYACRRRD | 1.72
159 | HIKLHSGIKPFKCHLCNYACRRRD | 1.74
160 | HIKLHSGHKPFKCHLCNYACRRRD | 1.93
161 | HIKLHSGTKPFKCHLCNYACRRRD | 1.59
162 | HIKLHSGVKPFKCHLCNYACRRRD | 2.13
163 | HIKLHSGGKPFKCHLCNYACRRRD | 2.85
164 | HIKLHSGCKPFKCHLCNYACRRRD | 1.97
165 | HIKLHSGLKPFKCHLCNYACRRRD | 1.79
166 | HIKLHSGPKPFKCHLCNYACRRRD | 2.17
167 | HIKLHSGYKPFKCHLCNYACRRRD | 2.06
168 | HIKLHSGAKPFKCHLCNYACRRRD | 1.92

Row | Variant | protein stability index
169 | HIKLHSGKKPFKCHLCNYACRRRD | 1.5
170 | HIKLHSGSKPFKCHLCNYACRRRD | 2.22
171 | HLKLHSGEKPFKCHLCNYACRRRD | 2
172 | HFKLHSGEKPFKCHLCNYACRRRD | 2.27
173 | HHKLHSGEKPFKCHLCNYACRRRD | 2.3
174 | HNKLHSGEKPFKCHLCNYACRRRD | 2.14
175 | HDKLHSGEKPFKCHLCNYACRRRD | 2.5
176 | HWKLHSGEKPFKCHLCNYACRRRD | 2.22
177 | HVKLHSGEKPFKCHLCNYACRRRD | 1.47
178 | HCKLHSGEKPFKCHLCNYACRRRD | 2.44
179 | HKKLHSGEKPFKCHLCNYACRRRD | 1.86
180 | HYKLHSGEKPFKCHLCNYACRRRD | 1.93
181 | HSKLHSGEKPFKCHLCNYACRRRD | 1.76
182 | HQKLHSGEKPFKCHLCNYACRRRD | 2.32
183 | HMKLHSGEKPFKCHLCNYACRRRD | 2.6
184 | HGKLHSGEKPFKCHLCNYACRRRD | 2.29
185 | HEKLHSGEKPFKCHLCNYACRRRD | 1.78
186 | HPKLHSGEKPFKCHLCNYACRRRD | 2.13
187 | HRKLHSGEKPFKCHLCNYACRRRD | 1.96
188 | HTKLHSGEKPFKCHLCNYACRRRD | 2.02
